Experimental data taken from patent publication US20190032060.

Legend:
[1] = target: T1, Insulin receptor (extracellular domain) (Homo sapiens?) (UniProt P06213+P06213); assay: filter; settings: 200 mM HEPES, 510 mM NaCl, 25 mM KCl, 25 mM MgCl2, 37 C
[2] = target: Insulin receptor, endogenous on 3T3-L1 adipocytes (UniProt P15208+P15208); assay: cell_activity; settings: 6 Nap-dU (n positions) [n positions 8,10,11,21,23,27 = modified dU]; 2-deoxyglucose uptake, 4 h treatment
[3] = target: T1, Insulin receptor (extracellular domain); assay: FP; settings: 6 Nap-dU stated (n positions) [n positions 3,4,10,14,16,20,24 = modified dU]; filter binding assay in fact (see method p97-p99); 200 mM HEPES, 510 mM NaCl, 25 mM KCl, 25 mM MgCl2, 37 C

Sequence of Insulin receptor, endogenous on 3T3-L1 adipocytes (P15208 28-748, chain 1 of 2): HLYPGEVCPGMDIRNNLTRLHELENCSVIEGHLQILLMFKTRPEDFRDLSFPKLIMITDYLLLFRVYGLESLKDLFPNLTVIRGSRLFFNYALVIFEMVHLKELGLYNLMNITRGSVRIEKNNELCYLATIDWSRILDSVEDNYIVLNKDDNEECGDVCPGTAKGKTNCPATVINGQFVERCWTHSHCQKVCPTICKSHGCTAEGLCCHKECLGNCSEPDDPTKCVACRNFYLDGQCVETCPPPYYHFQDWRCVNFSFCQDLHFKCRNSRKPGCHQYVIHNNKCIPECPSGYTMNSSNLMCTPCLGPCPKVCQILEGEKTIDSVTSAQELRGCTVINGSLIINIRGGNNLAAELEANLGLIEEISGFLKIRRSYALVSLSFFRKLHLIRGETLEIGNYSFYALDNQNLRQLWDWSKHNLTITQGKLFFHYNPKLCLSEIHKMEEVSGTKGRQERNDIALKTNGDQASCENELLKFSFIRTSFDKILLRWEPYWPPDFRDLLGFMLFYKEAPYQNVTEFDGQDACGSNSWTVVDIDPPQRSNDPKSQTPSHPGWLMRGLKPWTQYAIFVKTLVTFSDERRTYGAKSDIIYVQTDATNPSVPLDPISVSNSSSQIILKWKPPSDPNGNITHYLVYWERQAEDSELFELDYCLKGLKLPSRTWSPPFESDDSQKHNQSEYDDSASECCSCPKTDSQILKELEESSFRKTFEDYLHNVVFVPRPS
Sequence of Insulin receptor, endogenous on 3T3-L1 adipocytes (P15208 753-1372, chain 2 of 2): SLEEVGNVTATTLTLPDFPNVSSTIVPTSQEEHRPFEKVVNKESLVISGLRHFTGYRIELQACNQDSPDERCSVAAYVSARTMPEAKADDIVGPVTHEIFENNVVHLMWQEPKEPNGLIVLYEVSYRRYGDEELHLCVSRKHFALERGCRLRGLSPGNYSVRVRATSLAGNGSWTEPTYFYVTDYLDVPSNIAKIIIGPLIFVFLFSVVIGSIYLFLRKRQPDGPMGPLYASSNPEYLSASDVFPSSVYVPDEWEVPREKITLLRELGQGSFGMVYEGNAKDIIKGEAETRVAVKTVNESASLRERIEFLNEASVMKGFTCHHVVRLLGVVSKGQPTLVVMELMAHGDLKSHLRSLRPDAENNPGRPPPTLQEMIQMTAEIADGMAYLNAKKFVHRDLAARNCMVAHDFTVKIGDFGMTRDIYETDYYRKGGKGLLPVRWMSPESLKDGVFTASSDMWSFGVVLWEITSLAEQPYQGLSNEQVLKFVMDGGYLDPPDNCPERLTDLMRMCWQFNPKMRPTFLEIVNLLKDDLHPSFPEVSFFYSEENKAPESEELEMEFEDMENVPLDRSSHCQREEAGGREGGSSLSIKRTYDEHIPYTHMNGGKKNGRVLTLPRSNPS

“CGCCTGGTGTTAAGACAACCTCTAGGTCAGGCG [IR-A48]” was tested, and the Kd ([1]; 6 Nap-dU (n positions) [n positions 8,10,11,21,23,27 = modified dU]) was 3.5 nM and the EC50 [2] was 66.2 nM.

Work on “TATGAGTGACCGTCCGCCTGGTGTTAAGACAACCTCTAGGTCAGGCGCAGTGACGGGTAGCAGCCACACCACCAGCCAAA [IR-A48F]” yielded a Kd ([1]; 8 Nap-dU in the variable region (n positions) [n positions 22,24,25,35,37,41,51,58 = modified dU]) of 6.9 nM.

For CATTACGCATGAGTCTAGATCCGTCAG [IR-A62], the Kd [3] was 2.4 nM.
